Target: Gαq construct with N-terminal fusion of LgBiT (UniProt P50148)
Assay: NanoBiT Gαq-recruitment assay (concentration-response to LTC4)
Details: read at log[LTC4, (M)] = -6, the highest concentration; n = 3, mean ± s.e.m.; parent: est. 97; read off a plot; scale: normalized Gq response

| response | Substance |
| --- | --- |
| 0 | CysLT2R with C-terminal SmBiT (wild type, NanoBiT Gαq-recruitment assay) (from UniProt Q9NS75) R136A |
| 57 | CysLT2R with C-terminal SmBiT (wild type, NanoBiT Gαq-recruitment assay) (from UniProt Q9NS75) S241A |
